± gives the standard deviation of the averaged measurements.
The sequences below were run on ATP (assay: switch fluorescence ratio, 500 uM ATP over buffer (Cy3 cluster intensity, sum of 5 cycles each) (fold (ratio)); higher = stronger signal-on switching upon ATP binding; sequences stand for … in TCGTCGGCAGCGTCAGATGTGTATAAGAGACAGTTTTTTTTTTTTTTTTTTTTTTTTT…TC). Settings: aptamer strand: ATP DNA aptamer (quencher-CACCTGGGGGAGTATTGCGGAGGAAGG + anchor), 100 nM annealed; ATP concentration: 500 uM.
Summary of the method: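 Five buffer/ATP imaging cycles were run on Cy3-labelled switching-strand clusters on a modified Illumina MiSeq flow-cell, with NaOH stripping and re-annealing between cycles. In each cycle, clusters annealed to 100 nM quencher-labelled ATP aptamer were imaged in selection buffer, then after 15 min with 500 uM ATP at 22 °C. Per cluster, the fluorescence ratio is summed target-cycle over summed buffer-cycle Cy3 intensity, averaged per switch-domain sequence. Only clusters within 100-1000 RFU were kept.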
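Note: ATP exposure 15 min at 22 °C before imaging.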

Point of comparison: GAACTTAGAT, switch fluorescence ratio 1.01 ± 0.04. Against it:
- AATCTGGGTG — higher, 1.11 ± 0.034
- GACGGTGGCT — the same, 1.01 ± 0.023
- TGAAATGCTA — within error, 1.036 ± 0.0073
- TCGATGTTTC — the same, 1.01 ± 0.026
- TTCATGATTT — within error, 1.034 ± 0.0045
- TGTGTAAAGG — within error, 1.04 ± 0.042
- AGCAAAATGG — within error, 1.0258 ± 0.00022
- CATAACATAG — within error, 0.995 ± 0.012
- TCAAACTGGT — within error, 1.03 ± 0.028
- CATGTTTGGT — within error, 0.987 ± 0.013
- GTTAATTGAT — within error, 1 ± 0.027
- CGAATCGGCT — within error, 1.05 ± 0.054
- AGGGCGGGTA — the same, 1.01 ± 0.014
- AGCCTTGGGA — within error, 1 ± 0.024
- GATGATCTTT — within error, 0.966 ± 0.014
- TGTTTCTCGT — the same, 1.01 ± 0.015
- GTCCGGGTTT — the same, 1.01 ± 0.036
- GAATCGTGAG — within error, 0.999 ± 0.04
- TTCAAAATTT — within error, 0.982 ± 0.015
- GGGGATGGGT — within error, 0.999 ± 0.045
- TCGTTATCTT — within error, 0.979 ± 0.013
- CGGATCGGTG — within error, 0.991 ± 0.019
- CGGAAAAAGC — within error, 0.985 ± 0.028
- TATGTCTTTA — within error, 1 ± 0.017
- GGTAAAGGGT — within error, 0.991 ± 0.016
- GTTTTACGTC — within error, 0.981 ± 0.047
- TTAAGGAGTG — lower, 0.95 ± 0.0099
- TTAGGGTAGG — within error, 0.97 ± 0.039
- GTAATTGGGT — within error, 0.986 ± 0.015
- TGATGTTAGC — within error, 1.03 ± 0.036
- GAGACGCTTA — higher, 1.069 ± 0.0064
- TACTTGATCT — within error, 1.001 ± 0.0033
- GGGTTAGAGG — within error, 0.9959 ± 0.0071
- ATACTAGGGG — the same, 1.01 ± 0.02
- GCAGGACGGA — within error, 1.03 ± 0.04
- GGAAGTAGCC — within error, 0.959 ± 0.038
- GTAGAGAGGG — within error, 0.992 ± 0.053
- GACGTGTAGT — within error, 1.02 ± 0.025
- TGAGATGGTT — the same, 1.01 ± 0.029
- GGATTCCGGC — within error, 0.981 ± 0.053
- GTGTAGGGGA — within error, 1.0019 ± 0.00055
- TTCAAAAAAA — within error, 0.97 ± 0.026
- ATAGGCGGTT — within error, 1.02 ± 0.012
- TGGGGCGAGG — the same, 1.01 ± 0.014
- GCCATCGAAT — within error, 1 ± 0.021
- TGTTCAGGGA — within error, 1.048 ± 0.0073
- GGAGTTTGTG — within error, 0.989 ± 0.014
- TTTTACCCAG — higher, 1.11 ± 0.012
- CGTGGTGGGA — within error, 0.9737 ± 0.0088
- AAAATGAGCC — within error, 1.036 ± 0.00036
- CAAATTTGG — within error, 1.05 ± 0.031
- CTGGTTTTTT — within error, 0.99 ± 0.01
- CAGTGCGGCT — the same, 1.007 ± 0.0046
- AATAATGCAA — within error, 1.07 ± 0.022
- GGTCCTGTTG — the same, 1.01 ± 0.035
- TATCGCTGGT — within error, 1.04 ± 0.023
- CAGACGGTTT — higher, 1.095 ± 0.0078
- GTTGGGAAAA — the same, 1.01 ± 0.034
- ATGAAGGGTG — within error, 1.04 ± 0.036
- ATTACGGTCA — within error, 1.02 ± 0.038
- GCGGATGTAG — the same, 1.01 ± 0.03
- GATAGTAATG — the same, 1.01 ± 0.018
- ATCAATTTAG — within error, 1.02 ± 0.038
- ACGAACGTTG — higher, 1.26 ± 0.089
- TGAATAGGGG — within error, 0.989 ± 0.0095
- TAGGGCACA — within error, 1.1 ± 0.057
- TGCGGGGAGG — the same, 1.01 ± 0.0017
- TCTTTAGGGA — within error, 1.02 ± 0.054
- TGGCCTTGTG — within error, 1.02 ± 0.051
- ATTAAGCTGT — the same, 1.009 ± 0.01
- TTTGACTTAG — within error, 1.02 ± 0.043
- GACGGGGGCA — within error, 0.99948 ± 0.00073
- GGTTTTGTGC — within error, 1.03 ± 0.091
- TGGGGGGACT — within error, 1.02 ± 0.029
- ATATGTGTTG — within error, 0.992 ± 0.0066
- ATAGTAAGCC — within error, 1.04 ± 0.031
- GGATGTCTAG — within error, 0.9885 ± 0.0037
- TCTAGGACGT — within error, 1.02 ± 0.019
- CGGGAACTCT — the same, 1.013 ± 0.0054
- GAATAAATAG — within error, 1 ± 0.024
- TTTTTACGTG — within error, 0.969 ± 0.035
- TTGGGTTAAG — within error, 0.983 ± 0.015
- ACAAATTGCG — within error, 0.991 ± 0.027
- ACGCTTTACC — higher, 1.89 ± 0.11
- ATGTTTTCTG — within error, 0.968 ± 0.04
- CACTCTCTGA — within error, 0.969 ± 0.045
- GAATGCATTT — within error, 1.02 ± 0.038
- GTGAGATTGC — lower, 0.95675 ± 0.0008
- ATTATGATGC — within error, 0.992 ± 0.014
- TTGCCGGGGT — within error, 1.1 ± 0.16
- GACTGTGGCA — the same, 1.013 ± 0.0021
- GAATAACTAG — within error, 0.9776 ± 0.0088
- ATACATCTAG — within error, 0.996 ± 0.044
- TTCAGAGAAA — within error, 0.98 ± 0.034
- AATCGGTAAT — within error, 1.027 ± 0.0081
- TTGAGGAAGT — within error, 1.06 ± 0.058
- GGGGGGAGAT — within error, 1.04 ± 0.077
- TGGTGTGTTT — within error, 0.978 ± 0.035
- GGCTGTGGCG — within error, 0.9761 ± 0.0015
- GCCGCAGCTA — higher, 3.05 ± 0.15
- GAATGAGTTG — within error, 0.977 ± 0.02
- ACGTAATTTT — higher, 1.17 ± 0.03
- TTTTCTCACG — within error, 1.12 ± 0.11
- TTACCTCCGT — higher, 2.19 ± 0.14
- GCCTTTTTTA — within error, 0.996 ± 0.016
- ACGCTGAGCA — within error, 1.033 ± 0.008
- TATTTTCGGT — within error, 0.986 ± 0.021
- AAGGCGGGTA — within error, 1 ± 0.021
- GGTTTGTGCT — within error, 0.94 ± 0.051
- TTTAGAACTT — the same, 1.01 ± 0.077
- TAGGAGGGGC — within error, 0.958 ± 0.12
- CGCTTTAGTT — within error, 0.986 ± 0.026
- TGCAATTCAG — higher, 1.14 ± 0.012
- ATGAGACCCT — within error, 1.07 ± 0.036
- GAGAAGTTGA — within error, 1 ± 0.02
- AGAACATAGA — within error, 0.986 ± 0.0025
- GAAGCCGGAC — higher, 1.12 ± 0.035
- CGATGGGGTG — within error, 0.998 ± 0.025
- TTTCGCCAGA — within error, 1.03 ± 0.0044
- TCGGTCACCA — within error, 1.05 ± 0.028
- TTTTCAGCAA — higher, 2.59 ± 1
- TGGTGGGGAA — within error, 0.974 ± 0.01
- TTGAGTTCTC — within error, 0.978 ± 0.016
- CGAAAGTATA — within error, 1.08 ± 0.075
- TGCGTTTGTT — within error, 0.996 ± 0.029
- CGGGTAGGTA — within error, 1 ± 0.012
- TTAAACAAGG — the same, 1.01 ± 0.012
- AGAGTGCGGT — the same, 1.011 ± 0.006
- CGGAGTGTGT — the same, 1.01 ± 0.016
- TGTTTAATGT — the same, 1.01 ± 0.019
- CCTATGGTTC — within error, 1.07 ± 0.053
- CCGGGGGCGG — the same, 1.01 ± 0.015
- ATGGACTATG — within error, 1.02 ± 0.043
- TAGGCAGAGT — the same, 1.01 ± 0.023
- CATACAGATC — within error, 1.06 ± 0.031
- CATGATCTCT — within error, 0.987 ± 0.071
- CCACCTATCA — within error, 1.07 ± 0.031
- TTACTACGTA — within error, 1.04 ± 0.059
- GTTTTTGGAC — within error, 0.982 ± 0.029
- GTTTTGAGAG — lower, 0.9595 ± 0.0086
- ACAAGTATGT — within error, 1.02 ± 0.041
- AGGAATTTGT — within error, 1.035 ± 0.0091
- GAGGTATTGG — the same, 1.01 ± 0.022
- CATTTAGCTC — higher, 1.07 ± 0.015
- TTGTGAACCG — within error, 0.973 ± 0.014
- AAGTATGGGA — within error, 1.02 ± 0.028
- TGGGGTTGTA — the same, 1.01 ± 0.056
- ATGTGCTGCC — within error, 0.983 ± 0.019
- TATATAGGGG — within error, 1 ± 0.026
- ATTTAAGGCT — within error, 0.99 ± 0.012
- CGAATGTGGG — the same, 1.0147 ± 0.00075
- TTTTTGTCAC — within error, 1.03 ± 0.038
- GCCGGACAGT — within error, 1 ± 0.017
- CGCATTTTGT — higher, 1.06 ± 0.0043
- CCTAGGCCCG — within error, 1.03 ± 0.053
- CGAAGAGGGG — within error, 0.995 ± 0.016

Reference: the supplement of paper PMC10126150
